Experimental findings from article PMC10725492 (Translational Psychiatry, 2023) are described below.

No end group written: not given here. *: point of attachment. Palmitoyl = CCCCCCCCCCCCCCCC(=O)*

For this assay, the target named is T1, recombinant APP N-terminal (18-612) fragment (UniProt P05067-4 18-612).
T1 construct: also called APP18-612; N-terminal APP; source: expressed by KMD Bioscience
Kind of assay: SPR. Particulars: both partners purified.

T1 sequence (P05067 other isoform, or with tags, fused parts or gaps): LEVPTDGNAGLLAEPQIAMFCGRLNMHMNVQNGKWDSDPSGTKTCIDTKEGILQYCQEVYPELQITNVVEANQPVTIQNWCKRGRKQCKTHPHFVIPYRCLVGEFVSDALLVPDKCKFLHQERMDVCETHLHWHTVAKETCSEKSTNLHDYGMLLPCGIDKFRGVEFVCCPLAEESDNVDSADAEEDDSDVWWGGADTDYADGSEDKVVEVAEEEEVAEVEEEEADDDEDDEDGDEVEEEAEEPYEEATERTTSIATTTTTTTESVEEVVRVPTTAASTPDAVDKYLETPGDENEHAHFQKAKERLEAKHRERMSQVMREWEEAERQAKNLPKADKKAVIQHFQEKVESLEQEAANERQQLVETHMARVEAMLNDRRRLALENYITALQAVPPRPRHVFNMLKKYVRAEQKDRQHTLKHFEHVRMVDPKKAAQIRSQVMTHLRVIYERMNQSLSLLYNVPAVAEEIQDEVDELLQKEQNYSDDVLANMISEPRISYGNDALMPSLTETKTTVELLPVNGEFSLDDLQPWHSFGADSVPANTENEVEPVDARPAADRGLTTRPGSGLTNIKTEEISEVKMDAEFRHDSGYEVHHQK

Regarding KKKKKKLKVRLASHLRK(Palmitoyl)ELRKRLLRDA (not fully specified) [AY51 peptide], the Kd turned out to be 554 nM.
